From US7208572B2, “Leptin-related peptides” (Albany Medical College, priority 1998, dated 2007)

Experiments:
OB-Rb = target: T1, OB-Rb (Mus musculus, UniProt P48356); assay: SEAP reporter gene signal transduction assay in GT1–7 cells cotransfected with HRRE-SEAP and OB-Rb; format: cell-based; details: peptide 1 to 250 uM, 24 h
T1 construct: full-length leptin receptor (OB-Rb), the receptor isoform predominantly expressed in the hypothalamus; expressed in transfected cells; host or cells: GT1-7
T1 sequence (P48356 22-1162): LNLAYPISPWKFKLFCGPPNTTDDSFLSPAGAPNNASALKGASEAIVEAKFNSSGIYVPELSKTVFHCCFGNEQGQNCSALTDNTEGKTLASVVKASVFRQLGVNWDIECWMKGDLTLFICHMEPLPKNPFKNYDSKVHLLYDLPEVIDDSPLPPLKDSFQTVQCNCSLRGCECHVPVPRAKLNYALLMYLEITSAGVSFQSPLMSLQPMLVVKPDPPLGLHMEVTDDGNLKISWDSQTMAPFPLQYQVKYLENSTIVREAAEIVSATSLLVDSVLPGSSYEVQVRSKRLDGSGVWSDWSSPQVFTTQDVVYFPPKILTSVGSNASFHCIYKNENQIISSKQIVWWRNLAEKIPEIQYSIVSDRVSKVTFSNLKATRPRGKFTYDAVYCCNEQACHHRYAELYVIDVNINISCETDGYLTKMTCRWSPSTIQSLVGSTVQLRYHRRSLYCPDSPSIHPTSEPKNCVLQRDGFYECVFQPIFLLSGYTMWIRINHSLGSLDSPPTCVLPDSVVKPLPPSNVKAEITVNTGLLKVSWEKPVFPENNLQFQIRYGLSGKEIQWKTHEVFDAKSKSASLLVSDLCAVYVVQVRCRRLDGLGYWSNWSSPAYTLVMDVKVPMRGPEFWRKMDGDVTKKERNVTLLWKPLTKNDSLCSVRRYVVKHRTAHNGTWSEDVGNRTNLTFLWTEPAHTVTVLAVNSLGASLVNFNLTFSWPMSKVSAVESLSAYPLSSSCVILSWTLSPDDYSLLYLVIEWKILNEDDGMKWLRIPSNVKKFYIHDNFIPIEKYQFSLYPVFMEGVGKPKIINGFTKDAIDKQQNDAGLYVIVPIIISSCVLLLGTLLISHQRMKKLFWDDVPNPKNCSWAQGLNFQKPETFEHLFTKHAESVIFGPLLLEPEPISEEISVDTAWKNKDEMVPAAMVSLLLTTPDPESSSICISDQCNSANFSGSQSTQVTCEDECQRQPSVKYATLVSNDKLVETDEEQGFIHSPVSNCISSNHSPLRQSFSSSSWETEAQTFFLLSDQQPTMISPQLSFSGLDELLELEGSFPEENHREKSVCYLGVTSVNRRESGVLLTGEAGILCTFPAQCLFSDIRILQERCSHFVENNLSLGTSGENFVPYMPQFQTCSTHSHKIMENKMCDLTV
Source text: Initial experiments to determine the mechanism of action of LEP(116–130) utilized two highly sensitive in vitro bioassays routinely used to assess leptin binding and receptor activation (see e.g., White, et al., 1997. Proc. Natl. Acad. Sci. U.S.A. 94: 10657–10662). An alkaline phosphatase (“AP”)-leptin (“OB”) fusion protein (“AP-OB”) was used to measure inhibition of leptin binding in the absence or presence of recombinant mouse leptin (positive control) or peptide, by COS-7 cells transfected with the long (signaling) form of the mouse OB receptor (“OB-RL”). Signal transduction assays were done in GT1–7 cells cotransfected with AP reporter and OB-RL constructs. Secreted alkaline phosphatase (“SEAP”) activity in response to stimulation with mouse leptin or peptide was measured by chemiluminescence.
Two days after transfection, the cells were stimulated with mouse leptin or leptin-related synthetic peptides for 24 hours. Growth media were harvested and SEAP activity was determined by chemiluminescence as described for AP-OB binding studies.
COS-7 and GT1–7 cells were cultured in DMEM supplemented with 10% fetal bovine serum, and transfected by the lipofectamine method. […] Supernatants were collected and SEAP reporter activities were measured by chemiluminescence using the GreatEscApe alkaline phosphatase detection kit as described by the manufacturer (CLONTECH). […]

[1] = 28-day ip study of body weight and food intake in female C57BL/6J ob/ob mice; format: in vivo, mouse; details: 1 mg per day ip, 28 days
Source text: In order to examine this possibility, six overlapping peptide amides, which corresponded to amino acid residues 106 to 167 of mouse leptin, were synthesized and their effects on body weight and food intake in female C57BL/6J ob/ob mice were subsequently assessed.

Question: Which “Stimulation of SEAP reporter activity” value (OB-Rb) does the source give for “A L S R L Q G S L Q D I L Q Q (ALSRLQGSLQDILQQ) [LEP(146–160)]” here?
Answer: incapable of inducing an increase in reporter gene activity

Question: And the “Weight gain and food intake vs vehicle” value [1]?
Answer: continued to consume food and gain weight at a rate comparable to vehicle-injected control mice
